In US20180057553A1, “CONJUGATE AND USE THEREOF” (The University of Tokyo, priority 2015, published 2018):

Molecular target: recombinant human TNF-alpha (Life Technologies) (human) (UniProt P01375)
Assay: SPR (Biacore), Etanercept amine-coupled to chip, TNF-alpha as analyte

Sequence of recombinant human TNF-alpha (Life Technologies) (human) (P01375 77-233 limits assumed): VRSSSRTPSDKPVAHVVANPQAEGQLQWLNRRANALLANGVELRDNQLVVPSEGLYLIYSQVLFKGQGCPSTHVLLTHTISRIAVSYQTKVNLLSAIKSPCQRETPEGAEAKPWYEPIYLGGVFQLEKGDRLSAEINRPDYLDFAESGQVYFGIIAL

Work on “Etanercept (soluble TNF receptor, product name Enbrel, Takeda Pharmaceutical Company) (Fc fusion)” yielded a Kd of 313 pM.
